Results taken from US20110256153A1 (IMMUNOGEN, published 2011).

T1: hCD37-M45 (human/murine chimera, UniProt P11049 1-281)
T1 construct: stably expressed on 300-19 cells; also called hCD37-M45 variant
T1 chain: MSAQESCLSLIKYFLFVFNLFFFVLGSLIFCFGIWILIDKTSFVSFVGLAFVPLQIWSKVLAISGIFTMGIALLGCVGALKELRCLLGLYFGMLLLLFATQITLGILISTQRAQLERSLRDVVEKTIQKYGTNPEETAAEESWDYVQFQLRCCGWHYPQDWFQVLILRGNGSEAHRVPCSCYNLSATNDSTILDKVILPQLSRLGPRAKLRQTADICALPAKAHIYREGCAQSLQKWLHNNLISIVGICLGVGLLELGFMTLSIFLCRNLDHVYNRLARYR

T2: human CD37 (human, UniProt P11049 1-278)
T2 construct: Tetraspanin antigen; Expressed on 300-19 cells transfected with pSRa-CD37 (entire CDS) or endogenous on WSU-DLCL-2, BJAB and Ramos lymphoma cells; also called CD37 antigen; human CD37 wildtype
T2 sequence: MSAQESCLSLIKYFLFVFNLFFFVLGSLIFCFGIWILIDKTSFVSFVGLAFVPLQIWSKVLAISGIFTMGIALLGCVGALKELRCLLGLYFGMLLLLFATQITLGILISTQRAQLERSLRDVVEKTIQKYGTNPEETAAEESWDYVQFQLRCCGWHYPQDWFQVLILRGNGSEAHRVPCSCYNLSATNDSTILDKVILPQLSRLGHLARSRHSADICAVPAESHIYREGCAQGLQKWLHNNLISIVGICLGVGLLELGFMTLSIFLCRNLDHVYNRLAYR

T3: macaque CD37 (macaque, UniProt P11049 1-277 (human entry))
T3 construct: Expressed on 300-19 cells transfected with pSRa-CD37mac (300-19/CD37mac cells); also called macaca CD37; macaque derived CD37 antigen
T3 chain: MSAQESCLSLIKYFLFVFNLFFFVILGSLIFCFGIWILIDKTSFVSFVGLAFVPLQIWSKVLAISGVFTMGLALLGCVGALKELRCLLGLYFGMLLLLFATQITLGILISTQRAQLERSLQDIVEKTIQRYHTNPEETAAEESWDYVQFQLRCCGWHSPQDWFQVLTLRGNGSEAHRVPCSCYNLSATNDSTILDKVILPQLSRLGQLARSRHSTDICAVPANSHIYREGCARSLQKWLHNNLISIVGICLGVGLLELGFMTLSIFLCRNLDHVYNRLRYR

T4: hCD37-M3 (human/murine chimera, UniProt P11049 1-281)
T4 construct: stably expressed on 300-19 cells; also called hCD37-M3 variant
T4 chain: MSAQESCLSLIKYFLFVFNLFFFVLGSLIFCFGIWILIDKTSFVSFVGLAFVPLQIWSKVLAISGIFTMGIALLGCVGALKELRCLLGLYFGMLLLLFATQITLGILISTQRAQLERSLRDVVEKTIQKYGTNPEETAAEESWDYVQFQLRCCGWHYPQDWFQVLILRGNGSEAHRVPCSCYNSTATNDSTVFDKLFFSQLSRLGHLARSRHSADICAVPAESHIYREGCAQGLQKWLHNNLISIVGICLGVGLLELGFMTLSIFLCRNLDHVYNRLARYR

T5: hCD37-M1 (human/murine chimera, UniProt P11049 1-281)
T5 construct: stably expressed on 300-19 cells; also called hCD37-M1 variant
T5 chain: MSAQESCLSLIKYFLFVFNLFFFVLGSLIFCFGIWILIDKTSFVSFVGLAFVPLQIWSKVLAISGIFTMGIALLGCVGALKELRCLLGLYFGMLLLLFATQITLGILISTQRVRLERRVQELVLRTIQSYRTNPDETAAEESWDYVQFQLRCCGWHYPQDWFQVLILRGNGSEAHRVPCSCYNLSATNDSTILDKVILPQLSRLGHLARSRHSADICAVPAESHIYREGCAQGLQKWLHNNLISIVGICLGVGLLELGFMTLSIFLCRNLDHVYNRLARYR


Columns and labels:
hCD37-M45 [1] = molecular target: T1, hCD37-M45; test: flow cytometry, 300-19 cells expressing hCD37-M45
Protocol: (§1) Binding specificity was tested by flow cytometry using purified antibodies. […] All murine antibodies were incubated for 3 h with either CD37-expressing 300-19 cells or the non-transfected 300-19 cells (1×10⁵ cells per sample) in 100 μL FACS buffer (RPMI-1640 medium supplemented with 2% normal goat serum). Then, the cells were pelleted, washed, and incubated for 1 h with 100 μL of FITC-conjugated goat anti-mouse IgG-antibody (Jackson Laboratory, 6 μg/mL in FACS buffer). The cells were pelleted again, washed with FACS buffer and resuspended in 200 μL of PBS containing 1% formaldehyde. Samples were acquired using a FACSCalibur flow cytometer with the HTS multiwell sampler or a FACS array flow cytometer and analyzed using CellQuest Pro (all from BD Biosciences, San Diego, US).
(§2) Binding of various CD37 antibodies to cells expressing human CD37 wildtype and variants was analyzed by flow cytometry using 1.5 μg/mL of each antibody. The isolated antibodies of this invention were compared to commercially available CD37 antibody WR17, as well as the TRU-016 SMIP. […] Likewise, all antibodies tested bound the hCD37-M3 variant (FIG. 18B). In contrast, the isolated antibodies of this invention bound the hCD37-M1 variant, while TRU-016 and WR17 were unable to bind hCD37-M1 variant (FIG. 19A). The CD37-50 and CD37-51 antibodies and TRU-016 were also able to bind the hCD37-M45 variant. […] In contrast, the CD37-3, CD37-12, CD37-38, CD37-56 and CD37-57 antibodies require at least one of the AA residues in the hCD37-M45 variant that were changed to the corresponding murine AA residues for binding to the CD37 antigen.

human CD37 [2] = molecular target: T2, human CD37; test: flow cytometry titration on Ramos cells; apparent Kd
Protocol: as §1
The chimeric antibodies chCD37-3 and chCD37-12 were assayed for their binding affinity to Ramos cells in comparison to their murine counterparts. Flow cytometry binding assays using Ramos cells and muCD37-3, chCD37-3, muCD37-12 and chCD37-12 antibodies were carried out and analyzed as described in Example 2 using secondary FITC-conjugated goat-anti-murine and -anti-human antibodies. FIG. 9A depicts the dose-response curves generated by non-linear regression for each antibody. The value for the apparent dissociation constant (Kd) of each antibody was calculated using GraphPad Prism v4 (GraphPad software, San Diego, Calif.).

macaque CD37 = molecular target: T3, macaque CD37; test: flow cytometry, 300-19/CD37mac cells
Procedure, shortened: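 300-19 cells transfected with macaque CD37, alongside non-transfected 300-19 cells (1×10⁵ per sample), incubated 3 h with purified antibodies in RPMI-1640 with 2% normal goat serum. Bound antibody detected with FITC-conjugated anti-mouse or anti-human secondary for 1 h. Cells fixed in 1% formaldehyde before flow cytometry.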

hCD37-M3 = molecular target: T4, hCD37-M3; test: flow cytometry, 300-19 cells expressing hCD37-M3, 1.5 µg/mL antibody
Protocol: as §1, §2

hCD37-M1 = molecular target: T5, hCD37-M1; test: flow cytometry, 300-19 cells expressing hCD37-M1, 1.5 µg/mL antibody
Protocol: as §1, §2

human CD37 [3] = molecular target: T2, human CD37; test: flow cytometry titration on WSU-DLCL-2 cells; EC50 taken as apparent Kd
Protocol: as §1
To verify that the antibodies can also bind to endogenously expressed CD37, binding experiments were performed with CD37-positive WSU-DLCL-2 lymphoma cells and the muCD37-3, muCD37-12, muCD37-8, muCD37-10 or muCD37-14 antibodies. WSU-DLCL-2 cells were incubated with varying concentrations of murine antibodies and processed as described above for flow cytometry analysis. Data analysis was performed using CellQuest Pro (BD Biosciences, San Diego, US) and for each sample the mean fluorescence intensity for FL1 (MFI) was exported and plotted against the antibody concentration in a semi-log plot (FIG. 3). […]

hCD37-M45 [4] = molecular target: T1, hCD37-M45; test: flow cytometry, 300-19 cells expressing hCD37-M45, 1.5 µg/mL antibody
Protocol: as §1
Binding of various CD37 antibodies to cells expressing human CD37 wildtype and variants was analyzed by flow cytometry using 1.5 μg/mL of each antibody. The isolated antibodies of this invention were compared to commercially available CD37 antibody WR17, as well as the TRU-016 SMIP. […] Likewise, all antibodies tested bound the hCD37-M3 variant (FIG. 18B). In contrast, the isolated antibodies of this invention bound the hCD37-M1 variant, while TRU-016 and WR17 were unable to bind hCD37-M1 variant (FIG. 19A). The CD37-50 and CD37-51 antibodies and TRU-016 were also able to bind the hCD37-M45 variant. […]

human CD37 [5] = molecular target: T2, human CD37; test: flow cytometry titration on BJAB cells; apparent Kd
Procedure, shortened: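 BJAB cells were incubated 3 h with titrated antibody in RPMI-1640 containing 2% goat serum, then 1 h with FITC anti-mouse or anti-human IgG, fixed in 1% formaldehyde and read by flow cytometry. Apparent Kd was derived by non-linear regression of the dose-response curves.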

| Binder | binding result (hCD37-M45 [1]) | Kd (human CD37 [2]) [pM] | binding result (macaque CD37) | binding result (hCD37-M3) | binding result (hCD37-M1) | Kd (human CD37 [3]) [pM] | binding result (hCD37-M45 [4]) | Kd (human CD37 [5]) [pM] |
| --- | --- | --- | --- | --- | --- | --- | --- | --- |
| muCD37-12 (antibody, mouse IgG2a, kappa, Murine hybridoma antibody) heavy: QIQLVQSGPELKKPGETVKISCKASGYTFTKYGMNWVKQAQGKGLKWMGWINTNTGESRNAEEFKGRFAFSLETSASTAYLQINNLKYEDTATYFCGRGTVVADWGQGTTLTVSSAKTTAPSVYPLAPVCGDTTGSSVTLGCLVKGYFPEPVTLTWNSGSLSSGVHTFPAVLQSDLYTLSSSVTVTSSTWPSQSITCNVAHPASSTKVDKKIEPRGPTIKPCPPCKCPAPNLLGGPSVFIFPPKIKDVLMISLSPIVTCVVVDVSEDDPDVQISWFVNNVEVHTAQTQTHREDYNSTLRVVSALPIQHQDWMSGKEFKCKVNNKDLPAPIERTISKPKGSVRAPQVYVLPPPEEEMTKKQVTLTCMVTDFMPEDIYVEWTNNGKTELNYKNTEPVLDSDGSYFMYSKLRVEKKNWVERNSYSCSVVHEGLHNHHTTKSFSRTPGK light: DIVLTQSPASLAVSLGQRATISCRASQSVSTSSYSYLYWFQQKPGQPPKLLIKYASNLASGVPARFSGSGSGTDFTLNIHPVEEEDTATYYCQHSWEIPYTFGGGTKLEIKRADAAPTVSIFPPSSEQLTSGGASVVCFLNNFYPKDINVKWKIDGSERQNGVLNSWTDQDSKDSTYSMSSTLTLTKDEYERHNSYTCEATHKTSTSPIVKSFNRNEC | no binding (tested: 1.5 µg/mL) | 800 | no binding | binds | binds | 1100 | – | – |
| muCD37-50 (antibody, mouse IgG2a, kappa, V domains shown, Murine hybridoma antibody) VH: DVQLQESGPDLLKPSQSLSLTCTVTGYSITSGFAWHWIRQFPGNKLEWMGYILYSGSTVYSPSLKSRISITRDTSKNHFFLQLNSVTTEDTATYYCARGYYGYGAWFAYWGQGTLVTVSA VL: QIVLTQSPAIMSASPGEKVTMTCSATSSVTYMHWYQQKSGTSPKRWIYDTSKLPYGVPGRFSGSGSGTSYSLTISSMEAEDAATYYCQQWSDNPPTFGSGTKLEIKR | – | – | – | binds | binds | – | binds | 600 |
| muCD37-51 (antibody, mouse IgG2a, kappa, V domains shown, Murine hybridoma antibody) VH: DVQLQESGPDLLKPSQSLSLTCTVTGYSISSGFAWHWIRQFPGNKLEWMGYIHYSGSTNYSPSLKSRISITRDSSKNQFFLQLNSVTTEDTATYYCARGYYGFGAWFVYWGQGTLVTVSA VL: QIVLTQSPAIMSASPGEKVTMTCSATSSVTYMHWYQQKSGTSPKRWIYDTSKLASGVPARFSGSGSGTSYSLTISNMEAEDAATYYCQQWSSNPPTFGSGTKLEIKR | – | – | binds | binds | binds | – | binds | 600 |
